From patent US20090087494A1 (BOARD OF REGENTS OF THE UNIVERSITY OF NEBRASKA, published 2009) come the findings set out here.

In assay [1] the target is T1, bovine LHRH receptor (bovine, UniProt P32236 1-328).
T1 construct: whole, on cells; The receptor stood in crude membrane preparations of bovine tissue homogenates, not on intact cells; also called GnRH receptor
T1 sequence (looked up): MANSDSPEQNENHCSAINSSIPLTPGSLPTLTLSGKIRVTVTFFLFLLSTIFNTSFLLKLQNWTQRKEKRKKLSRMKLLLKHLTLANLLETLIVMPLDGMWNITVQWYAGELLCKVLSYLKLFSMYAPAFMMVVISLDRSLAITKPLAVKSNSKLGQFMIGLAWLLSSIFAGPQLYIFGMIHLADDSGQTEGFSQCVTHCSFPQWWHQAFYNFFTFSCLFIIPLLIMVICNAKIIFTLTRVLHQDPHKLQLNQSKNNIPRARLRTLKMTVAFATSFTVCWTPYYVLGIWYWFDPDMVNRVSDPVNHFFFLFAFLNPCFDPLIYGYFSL
The assay is described as follows: displacement of 125I-deslorelin, bovine nasal MTA region membranes, low affinity site (IC50 II). As to the method: (§1) Competition Studies: To determine the amount of unlabelled deslorelin required to displace the radioactivity, competition studies were conducted. Briefly, membranes were incubated with 100,000 cpm of I¹²⁵ deslorelin in the presence or absence of unlabelled deslorelin (0.01-3,000 ng) in a total volume of 200 μl for 4 hr at 4° C. Assays were performed in triplicates. At the end of 4 hr, the incubation tubes were centrifuged at 10,000 g for 20 min at 4° C. to separate the bound fraction. Radioactivity was measured in the pellet using a Perkin-Elmer γ-counter. The same controls as in the kinetic and saturation studies were used. The experiment was repeated three times.
(In general: In a radioligand displacement assay an active substance lowers the binding of a labelled ligand.)

Assay [2] has as its target T1, bovine LHRH receptor. Description: displacement of 125I-deslorelin, bovine nasal MTA region membranes, high affinity site (IC50 I). On the procedure:
as §1

Assay [3] deals with T1, bovine LHRH receptor. The assay is described as follows: displacement of 125I-deslorelin, bovine nasal ITP region membranes, low affinity site (IC50 II). As to the method:
as §1

The target of assay [4] is T1, bovine LHRH receptor. The assay is described as follows: displacement of 125I-deslorelin, bovine nasal MTP region membranes, low affinity site (IC50 II). As to the method:
as §1

Assay [5] concerns the target T1, bovine LHRH receptor. Description: displacement of 125I-deslorelin, bovine nasal MTP region membranes, high affinity site (IC50 I). On the procedure:
as §1

For assay [6], the target named is T1, bovine LHRH receptor. The assay is described as follows: displacement of 125I-deslorelin, bovine pituitary membranes, high affinity site (IC50 I). On the procedure:
as §1

Assay [7] deals with T1, bovine LHRH receptor. The assay is described as follows: displacement of 125I-deslorelin, bovine pituitary membranes, low affinity site (IC50 II). As to the method: as §1
The target in assay [8] is T1, bovine LHRH receptor. Description: displacement of 125I-deslorelin, bovine nasal ITP region membranes, high affinity site (IC50 I). As to the method: as §1

B1: deslorelin (peptide)
peptide: EHWSYWLRP
modifications: pGlu at position 1; D-Trp at position 6; C-terminal ProNHEt (ethylamide)
notes: Synthetic LHRH analog, gift from Balance Pharmaceuticals; also called unlabelled deslorelin; unlabeled deslorelin
For the molecule B1, the IC50 in the assay with bovine LHRH receptor [1] was found to be 53.2 nM; in the assay with bovine LHRH receptor [2], 0.136 nM; in the assay with bovine LHRH receptor [3], 32.9 nM; with bovine LHRH receptor [4], 42.1 nM; with bovine LHRH receptor [5] it was 0.112 nM; with bovine LHRH receptor [6] it was 0.031 nM. Further, the half-maximal inhibitory concentration (IC50) with bovine LHRH receptor [7] worked out at 17.9 nM; with bovine LHRH receptor [8] it was 0.102 nM.

As usually defined, the IC50 is the point on the concentration scale where inhibition reaches its midpoint.
